Experimental data taken from patent US20170022281A1 (AbbVie / Abbott, published 2017).
Where a chain is given by its changes, count along the chain named.

Legend:
[1] = molecular target: T1, human PRLR on cells (human, UniProt P16471 25-622); assay: cell-based or functional assay
T1 sequence: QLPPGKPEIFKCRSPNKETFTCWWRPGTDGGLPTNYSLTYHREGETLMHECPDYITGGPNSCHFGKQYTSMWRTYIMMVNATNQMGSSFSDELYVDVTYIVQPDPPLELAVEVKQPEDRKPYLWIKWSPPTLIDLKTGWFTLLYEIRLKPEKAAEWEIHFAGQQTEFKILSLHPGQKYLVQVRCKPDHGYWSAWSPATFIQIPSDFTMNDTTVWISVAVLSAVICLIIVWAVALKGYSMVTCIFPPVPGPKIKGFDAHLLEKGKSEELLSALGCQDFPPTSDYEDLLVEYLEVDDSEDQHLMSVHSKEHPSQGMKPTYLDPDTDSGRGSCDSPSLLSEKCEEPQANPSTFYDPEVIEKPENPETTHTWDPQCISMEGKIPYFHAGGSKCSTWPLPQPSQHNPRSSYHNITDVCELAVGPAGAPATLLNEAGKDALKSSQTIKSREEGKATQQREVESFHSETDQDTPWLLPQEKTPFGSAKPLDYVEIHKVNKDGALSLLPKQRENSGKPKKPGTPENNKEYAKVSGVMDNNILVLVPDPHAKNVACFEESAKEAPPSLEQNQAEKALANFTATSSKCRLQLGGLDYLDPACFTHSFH

[2] = molecular target: T2, rat PRLR on Nb2-11 rat lymphoma cells (rat, UniProt P05710 20-610); assay: cell-based or functional assay
T2 sequence (looked up): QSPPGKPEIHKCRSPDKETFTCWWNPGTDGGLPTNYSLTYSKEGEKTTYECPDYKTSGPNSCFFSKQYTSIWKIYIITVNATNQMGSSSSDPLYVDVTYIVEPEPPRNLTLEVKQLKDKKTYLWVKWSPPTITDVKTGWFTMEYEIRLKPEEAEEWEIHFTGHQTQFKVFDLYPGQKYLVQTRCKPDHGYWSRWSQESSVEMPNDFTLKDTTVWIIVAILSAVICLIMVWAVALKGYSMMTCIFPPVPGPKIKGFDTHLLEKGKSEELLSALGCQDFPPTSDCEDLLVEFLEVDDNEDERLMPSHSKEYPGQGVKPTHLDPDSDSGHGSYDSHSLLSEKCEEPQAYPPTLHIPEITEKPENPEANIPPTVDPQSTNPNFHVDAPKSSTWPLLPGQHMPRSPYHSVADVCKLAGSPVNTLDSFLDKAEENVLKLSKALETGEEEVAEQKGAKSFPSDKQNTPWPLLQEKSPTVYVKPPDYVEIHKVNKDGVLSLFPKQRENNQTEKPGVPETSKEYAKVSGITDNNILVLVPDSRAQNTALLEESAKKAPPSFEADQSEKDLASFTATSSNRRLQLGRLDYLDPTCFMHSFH

[3] = molecular target: cyno PRLR on Baf3-cyPRLR cells (cyno); assay: cell-based or functional assay
[4] = molecular target: T3, human PRLR (Biacore antigen) (human, UniProt P16471 25-234, limits assumed); assay: SPR Biacore
T3 construct: The construct injected over captured antibody is not described (a soluble form is likely); also called huPRLR
T3 sequence: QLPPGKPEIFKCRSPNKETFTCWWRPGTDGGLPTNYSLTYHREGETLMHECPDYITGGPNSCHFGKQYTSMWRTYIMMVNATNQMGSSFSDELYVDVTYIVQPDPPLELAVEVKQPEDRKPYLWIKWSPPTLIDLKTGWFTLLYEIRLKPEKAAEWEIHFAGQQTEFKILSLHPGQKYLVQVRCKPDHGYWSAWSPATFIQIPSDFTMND

[5] = molecular target: T4, murine PRLR (Biacore antigen) (murine, UniProt Q08501 20-229, limits assumed); assay: SPR Biacore
T4 construct: also called muPRLR
T4 sequence (looked up): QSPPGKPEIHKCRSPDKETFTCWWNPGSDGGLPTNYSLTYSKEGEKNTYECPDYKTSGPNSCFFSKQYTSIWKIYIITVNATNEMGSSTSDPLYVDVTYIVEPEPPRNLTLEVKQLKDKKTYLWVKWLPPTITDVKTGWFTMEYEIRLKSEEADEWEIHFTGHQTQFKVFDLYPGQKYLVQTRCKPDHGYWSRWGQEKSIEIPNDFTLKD
Procedure, shortened: (§1)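 Association rate, dissociation rate and dissociation constant were measured by surface plasmon resonance on a Biacore instrument. PRLR antigen was tested at 600 nM, 66.67 nM and 7.41 nM, a 3-point, 9-fold dilution series. Constants came from a 1:1 binding model fit (local Rmax, mass-transport term included) in Biacore T200 Evaluation Software.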

[6] = molecular target: T5, cyno PRLR (Biacore antigen) (cyno, UniProt A0A2K5WXK1 25-234); assay: SPR Biacore
T5 construct: also called cyPRLR
T5 sequence: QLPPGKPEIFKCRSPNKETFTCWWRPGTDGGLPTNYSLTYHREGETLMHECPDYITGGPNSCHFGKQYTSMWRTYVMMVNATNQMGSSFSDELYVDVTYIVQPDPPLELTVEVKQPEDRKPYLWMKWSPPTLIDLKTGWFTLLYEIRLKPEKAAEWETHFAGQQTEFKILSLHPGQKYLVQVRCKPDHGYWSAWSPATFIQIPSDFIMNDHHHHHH
Procedure, shortened: as §1

[7] = molecular target: T3, human PRLR (Biacore antigen); assay: SPR Biacore; remark: listed apart in the source
Procedure, shortened: as §1

[8] = molecular target: T1, human PRLR on cells; assay: FACS T47D 10 ug/mL
[9] = molecular target: T6, human PRLR ECD-Fc fusion protein (human, UniProt P16471 25-233); assay: ELISA on ECD
T6 construct: not shown: Fc region (captured by goat anti-human Fc)
T6 sequence: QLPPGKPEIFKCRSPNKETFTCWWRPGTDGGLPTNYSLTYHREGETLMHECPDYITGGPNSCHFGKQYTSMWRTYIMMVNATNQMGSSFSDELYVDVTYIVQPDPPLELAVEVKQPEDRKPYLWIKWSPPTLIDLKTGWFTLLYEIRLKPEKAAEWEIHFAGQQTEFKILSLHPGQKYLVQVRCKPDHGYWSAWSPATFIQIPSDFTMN
Procedure, shortened: (§2)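 EC50 values derive from fitted binding curves of antibody serial dilutions (1 h) on captured PRLR. Detection used an HRP-conjugated secondary (1 h), TMB development for 3–5 min, an H₂SO₄ stop and a 450 nm read, with all steps in Tween/PBS pH 7.4 buffer.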

[10] = molecular target: T7, mouse PRLR ECD-Fc fusion protein (mouse, UniProt Q08501 20-229); assay: ELISA on ECD
T7 construct: extracellular domain; not shown: Fc region (captured by goat anti-human Fc)
T7 sequence (looked up): T4 sequence (looked up)
Procedure, shortened: as §2

[11] = molecular target: T8, rat PRLR ECD-Fc fusion protein (rat, UniProt P05710 20-229); assay: ELISA on ECD
T8 construct: extracellular domain; not shown: Fc region (captured by goat anti-human Fc)
T8 sequence (looked up): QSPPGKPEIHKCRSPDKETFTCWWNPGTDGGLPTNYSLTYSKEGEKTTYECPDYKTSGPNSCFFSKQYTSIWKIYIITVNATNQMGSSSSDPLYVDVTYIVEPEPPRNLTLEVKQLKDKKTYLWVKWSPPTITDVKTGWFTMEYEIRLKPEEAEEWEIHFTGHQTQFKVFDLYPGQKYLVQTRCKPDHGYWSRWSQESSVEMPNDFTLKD
Procedure, shortened: as §2

[12] = molecular target: T2, rat PRLR on Nb2-11 rat lymphoma cells; assay: FACS Nb2-11 20 ug/mL
Experimental: (§3) Nb2-11 and Baf3-xPRLR cells were resuspended in FACS buffer (PBS+1% FBS) at 2 millions cells/mL. Cells were added to round bottom 96-well plate (100 uL/well) and treated with testing PRLR antibodies for 1 hr at 4 C. Cells were then washed with FACS buffer twice and incubated with 2nd antibody conjugated to ALEXA488 (Invitrogen) for 1 hr at 4 C. After two washes in FACS buffer, cells were resuspended in 1% formaldehyde in PBS. Cells were analyzed using LSRII flowcytometer.

[13] = molecular target: T9, mouse PRLR on Baf3-mPRLR cells (mouse, UniProt Q08501 20-608); assay: cell-based or functional assay
T9 sequence (looked up): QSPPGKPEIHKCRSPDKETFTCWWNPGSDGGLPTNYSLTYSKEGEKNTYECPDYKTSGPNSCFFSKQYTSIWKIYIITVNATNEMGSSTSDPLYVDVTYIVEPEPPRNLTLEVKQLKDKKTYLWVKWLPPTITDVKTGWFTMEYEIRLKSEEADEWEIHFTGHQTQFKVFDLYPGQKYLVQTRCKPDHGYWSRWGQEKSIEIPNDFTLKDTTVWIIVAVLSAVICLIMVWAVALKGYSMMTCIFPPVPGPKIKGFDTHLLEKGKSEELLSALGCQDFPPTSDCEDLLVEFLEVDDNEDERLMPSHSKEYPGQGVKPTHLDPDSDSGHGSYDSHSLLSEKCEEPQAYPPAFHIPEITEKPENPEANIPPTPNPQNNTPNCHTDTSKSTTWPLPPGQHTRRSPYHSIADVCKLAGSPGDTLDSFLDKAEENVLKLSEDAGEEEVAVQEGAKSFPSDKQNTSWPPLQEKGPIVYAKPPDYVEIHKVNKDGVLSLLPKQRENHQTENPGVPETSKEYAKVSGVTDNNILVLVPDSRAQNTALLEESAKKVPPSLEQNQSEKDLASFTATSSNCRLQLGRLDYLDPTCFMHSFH

[14] = molecular target: T9, mouse PRLR on Baf3-mPRLR cells; assay: FACS Baf3-mPRLR 10 ug/mL
Experimental: as §3

B1: chAb12 (antibody, human IgG1, kappa, V domains shown)
VH: DVQLQESGPGLVKPSQSLSLTCTVTGYSITSDYAWNWIRQFPGNKLEWMGYIGYSGRTSFNPSLKSRISITRDTSKNQFFLQLNSVTTEDTATYYCARGGFAMDYWGQGTSVTVSS
VL: QIVLTQSPGIMSASPGEKVTMTCSASSSVTYMYWYQQKPRSSPKPWIYLTSNLASGVPARFSGSGSGTSYSLTISSMEAEDGATYYCQQWSSTPPLTFGGGTKLELNT
[1]
  Baf3-hPRLR proliferation IC50: 10.7 µg/mL
[2]
  Nb2-11 proliferation IC50: 41.4 µg/mL
[3]
  Baf3-cyPRLR proliferation IC50: > 10 µg/mL

B2: Ab54 (antibody, human IgG1, kappa, V domains shown)
VH: EVQLVQSGAEVKKPGSSVKVSCKASGYTFTSYWIHWVRQAPGQGLEWIGEIDPSDSYTNYNQKFKGRATLTVDKSSSTAYMELSSLRSEDTAVYYCGRSFFTNWFAYWGQGTLVTVSS
VL: DVVMTQTPLSLSVTPGQPASISCRSSQSLVHSNGNTYLHWYLQKPGQSPQLLIYKVSNRFSGVPDRFSGSGSGTDFTLKISRVEAEDVGVYFCSQSTHVPFTFGGGTKVEIKR
notes: humanized from Ab7 (back mutations on Ab39); G1; also called Ab4 HC.1a.3 and Ab4 LC.1a
[4]
  fold weaker affinity than chAb7: ~5 fold
[5]
  Kd: 170000 pM
  koff: 0.007 s⁻¹
  kon: 41000 M⁻¹ s⁻¹
[6]
  Kd: 850 pM
  koff: 0.00012 s⁻¹
  kon: 140000 M⁻¹ s⁻¹
[7]
  Kd: 1000 pM
  koff: 0.00014 s⁻¹
  kon: 140000 M⁻¹ s⁻¹
[1]
  Baf3-hPRLR proliferation IC50: 0.77 µg/mL

B3: Ab55 (antibody, human IgG1, kappa, V domains shown)
VH: B2 VH with K74R
VL: B2 VL
notes: humanized from Ab7 (back mutations on Ab39); G1; also called Ab4 HC.1a.2 and Ab4 LC.1a
[4]
  fold weaker affinity than chAb7: ~4 fold
[5]
  Kd: 140000 pM
  koff: 0.0063 s⁻¹
  kon: 44000 M⁻¹ s⁻¹
[6]
  Kd: 590 pM
  koff: 9.8e-05 s⁻¹
  kon: 170000 M⁻¹ s⁻¹
[7]
  Kd: 670 pM
  koff: 0.00012 s⁻¹
  kon: 170000 M⁻¹ s⁻¹
[1]
  Baf3-hPRLR proliferation IC50: 0.92 µg/mL

B4: Ab8 (antibody, V domains shown)
VH: EVQLQQSGPELVKPGASVKISCKASGYTFTDYNIHWVKQSHGKSLEWIGYIYPNNDGTGYNQKFKSKATLTVDNSSSTAYMEVRSLTSEDSAVYYCARGDGNYVGDMDYWGQGTSVTVSS
VL: DIQMTQSPASLSASVGETVTITCRASENIYSYLAWYQQKQGKPPQLLVYNAKTLAEGVPSRFSGGGSGTQFSLKINSLQPEDFGSYYCQHHYATPFTFGSGTKLEIK
notes: murine monoclonal, isotype G2b; also called murine Ab8
[8]
  FACS GeoMean-neg: 1530
[5]
  Kd: 259000 pM
  koff: 0.0466 s⁻¹
  kon: 180000 M⁻¹ s⁻¹
[6]
  Kd: 2200 pM
  koff: 0.00116 s⁻¹
  kon: 526000 M⁻¹ s⁻¹
[7]
  Kd: 153 pM
  koff: 8.19e-05 s⁻¹
  kon: 536000 M⁻¹ s⁻¹
[1]
  Baf3-hPRLR proliferation IC50: 1.15 µg/mL
  T47D pPRLR ELISA IC50: 0.219 µg/mL
[3]
  Baf3-cyPRLR proliferation IC50: 1.64 µg/mL
[9]
  EC50: 98 pM
[10]
  EC50: 342 pM
[11]
  EC50: 205 pM

B5: Ab9 (antibody, V domains shown)
VH: EVQLQQSGPELVRPGASVKISCKASGYSFTDYNMHWVKQSHGKSLEWIGYIYPYNGGAGYNQKFKSKATMNVGISSSTAYMELRSLTSEDSAVYYCARGDGNYVGDMDYWGQGTSVTVSS
VL: B4 VL with P43S, G65S, Y92S, A93G
notes: murine monoclonal, isotype G2b; also called murine Ab9
[8]
  FACS GeoMean-neg: 1870
[7]
  Kd: 226 pM
  koff: 0.000131 s⁻¹
  kon: 577000 M⁻¹ s⁻¹
[12]
  FACS GeoMean-neg: 0
[1]
  Baf3-hPRLR proliferation IC50: 0.51 µg/mL
  T47D pPRLR ELISA IC50: 0.072 µg/mL
[2]
  Nb2-11 proliferation IC50: > 30 µg/mL
[13]
  Baf3-mPRLR proliferation IC50: > 30 µg/mL
[3]
  Baf3-cyPRLR proliferation IC50: 6.4 µg/mL
[14]
  FACS GeoMean-neg: 1
[9]
  EC50: 72 pM
